Tests used:
Format in all cases: biochemical
t-PA [1] = target: T1, t-PA (Homo sapiens, UniProt P00750); experiment: Kinetics of cleavage of synthetic peptides by t-PA (HPLC, Eadie-Hofstee analysis); settings: for Km / kcat, t-PA: hydrolysis of peptide by t-PA; for t-PA:u-PA Selectivity: ratio of kcat/Km for peptide hydrolysis, t-PA over u-PA
Description: (§1) Concentrations of functional t-PA and u-PA were measured by active site titration with 4-methylumbelliferyl p-guanidinobenzoate (Jameson, G., et al., (1973) Biochem. J. 131, 107-117) using a Perkin-Elmer LS 50B Luminescence Fluorometer as previously described (Madison, E. L., et al., (1995) J. Biol. Chem. 270: 7558-7562). In addition, the enzymes were titrated with a standard PAI-1 preparation that had been previously titrated against a trypsin primary standard. Total enzyme concentrations were measured by ELISA.
(§2) Individual phage stocks were prepared and digested with no enzyme, t-PA, u-PA, or u-PA in the presence of 1 mM amiloride, a specific inhibitor of u-PA. Kinetic-data were obtained by incubating various concentrations of peptide with a constant enzyme concentration to achieve between 5 and 20% cleavage of the peptide in each reaction. For assays with u-PA, enzyme concentration was either 815 or 635 nM. For assays with t-PA enzyme concentration was 700 nM. […] The buffer used in these assays has been described (Madison, E. L., et al., 1995). Reactions were stopped by addition of triflouroacetic acid to 0.33% or by freezing on dry ice. Cleavage of the 13 and 14 residue peptides was monitored by reverse phase HPLC as described (Madison, E. L., et al., 1995). The 4-6 residue peptides were acylated at their amino termini and amidated at their carboxyl termini. Cleavage of the 4-6 residue peptides was monitored by hydrophilic interaction HPLC chromatography (HILIC) (Alpert, A. J. (1990) J. Chromatog. 499, 177-196.) using a polyhydroxyaspartamine column from PolyLC (Columbia, Md.). Buffer A was 50 mM triethylamine phosphate in 10% acetonitrile and buffer B was 10 mM triethylamine phosphate in 80% acetonitrile. Peptides were eluted by a gradient which was varied from 100% Buffer B to 100% Buffer A during a 13 minute interval. The percent of cleaved peptide was calculated by dividing the area under the product peaks by the total area under substrate and product peaks. For all peptides containing multiple basic residues, mass spectral analysis of products confirmed that cleavage occurred at a single site and identified the scissile bond. Data were interpreted by Eadie-Hofstee analysis. Errors were determined as described (Taylor, J. R., 1982) An introduction to error analysis. The study of uncertainties in physical measurements. University Science Books, Mill Valley, Calif.) and were <25%.
(§3) Kinetic data were obtained by incubating various concentrations of peptide with a constant enzyme concentration to achieve between 5 and 20% cleavage of the peptide in each reaction as described in Example 1.

u-PA [2] = target: T2, u-PA (Homo sapiens, UniProt P00749); experiment: Kinetics of cleavage of synthetic peptides by u-PA (HPLC, Eadie-Hofstee analysis); settings: hydrolysis of peptide by u-PA
T2 construct: purchased Jack Henkin (Abbott Laboratories)
Description: as §1, §2, §3

u-PA [3] = experiment: as above; settings: ratio of kcat/Km for peptide hydrolysis, u-PA over t-PA
Description: as §1, §2, §3

u-PA [4] = target: T2, u-PA; experiment: Dot blot assay of digestion of individual substrate phage stocks by u-PA; settings: loss of antibody epitopes
Description: (§4) To verify that the substrate subtraction library had yielded substrates that were preferentially cleaved by t-PA, digestion of individual phage stocks by t-PA and u-PA was analyzed by a dot blot assay that was performed as previously described (Ding, L., et al., 1995; Smith, M. M., et al., 1995) (FIG. 3). Loss of positive staining indicates loss of antibody epitopes from the phage due to proteolytic cleavage of the random hexamer region.
In general, with the exception of the screening protocol, procedures followed were those used in Example 1. Digestion of the phage was performed using enzyme concentrations varying from 2-10 μg/ml and incubation times varying from 0.5-10 hours. Phage precipitation and dot blot analysis were performed as described in Example 1. Individual phage stocks were prepared and digested with no enzyme, t-PA, u-PA, or u-PA in the presence of 1 mM amiloride, a specific inhibitor of u-PA′ for periods of time varying from 15 minutes to 10 hours. Individual reaction mixtures were spotted onto a nitrocellulose filter using a dot blotter apparatus (BioRad). […]
Two changes were made in the experimental protocol to examine the P3 and P2 preferences of u-PA. […] Although this semi-quantitative assay cannot provide kinetic constants, it can provide an accurate rank ordering of the lability of the substrate phage clones.

t-PA [5] = target: T1, t-PA; experiment: Dot blot assay of digestion of individual substrate phage stocks by t-PA; settings: for digestion of phage stock by t-PA: loss of antibody epitopes; for selectivity of substrate phage for t-PA or u-PA: digestion by t-PA and u-PA
Description: as §4
In general, with the exception of the screening protocol, procedures followed were those used in Example 1. Digestion of the phage was performed using enzyme concentrations varying from 2-10 μg/ml and incubation times varying from 0.5-10 hours. Phage precipitation and dot blot analysis were performed as described in Example 1. Individual phage stocks were prepared and digested with no enzyme, t-PA, u-PA, or u-PA in the presence of 1 mM amiloride, a specific inhibitor of u-PA′ for periods of time varying from 15 minutes to 10 hours. Individual reaction mixtures were spotted onto a nitrocellulose filter using a dot blotter apparatus (BioRad). The filter was probed with MAb 3E-7 and developed using the Amersham Western ECL kit. Loss of positive staining indicates loss of antibody epitopes from the phage due to proteolytic cleavage of the randomized hexamer region.

T1 sequence (P00750 36-562): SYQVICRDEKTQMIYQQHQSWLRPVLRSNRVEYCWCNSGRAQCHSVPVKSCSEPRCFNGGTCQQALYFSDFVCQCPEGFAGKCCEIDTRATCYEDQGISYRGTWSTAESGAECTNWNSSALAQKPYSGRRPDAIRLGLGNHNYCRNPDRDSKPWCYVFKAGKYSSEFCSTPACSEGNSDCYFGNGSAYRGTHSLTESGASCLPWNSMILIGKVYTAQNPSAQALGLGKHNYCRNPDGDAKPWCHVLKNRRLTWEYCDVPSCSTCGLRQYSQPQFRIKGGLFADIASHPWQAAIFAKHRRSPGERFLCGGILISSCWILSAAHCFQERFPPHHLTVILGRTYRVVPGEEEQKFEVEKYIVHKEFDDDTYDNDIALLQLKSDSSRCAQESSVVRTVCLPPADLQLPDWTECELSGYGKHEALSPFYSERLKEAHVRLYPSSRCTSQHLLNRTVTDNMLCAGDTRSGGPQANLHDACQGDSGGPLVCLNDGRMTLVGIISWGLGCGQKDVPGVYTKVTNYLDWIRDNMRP

**Q.** “SGR↓SA (SGRSA; listed as Homo sapiens) [XVI]” was tested. Which Km (t-PA [1]) did it give?
**A.** Its Km is 40 mM.

**Q.** What about the “kcat, t-PA” value (t-PA [1]) of the same substance?
**A.** The value was 2.4 s⁻¹.

**Q.** And the Km (u-PA [2])?
**A.** The Km was 3.1 mM.

**Q.** And the “kcat, u-PA” value (u-PA [2])?
**A.** The value was 3.7 s⁻¹.

**Q.** Which Km (t-PA [1]) does the source give for “LGGSGR↓KASLSLE (LGGSGRKASLSLE; listed as Homo sapiens) [XIV]” here?
**A.** Its Km is 5.1 mM.

**Q.** And the “kcat, t-PA” value (t-PA [1])?
**A.** The value was 0.168 s⁻¹.

**Q.** What about the Km (u-PA [2]) of the same substance?
**A.** Its Km is 1.13 mM.

**Q.** What about the “kcat, u-PA” value (u-PA [2]) of the same substance?
**A.** The value was 1.14 s⁻¹.

**Q.** With “FRGR↓K (FRGRK; listed as Homo sapiens) [VII]” as the substance, how does the “t-PA:u-PA Selectivity” value (t-PA [1]) read?
**A.** The value was “approximately 74”.

**Q.** With “SGR↓S (SGRS; listed as Homo sapiens) [XV]” as the substance, how does the Km (t-PA [1]) read?
**A.** The Km was 15 mM.

**Q.** What about the “kcat, t-PA” value (t-PA [1]) of the same substance?
**A.** Its value is 5.0 s⁻¹.

**Q.** And the “t-PA:u-PA Selectivity” value (t-PA [1])?
**A.** Its value is 0.30.

**Q.** What about the Km (u-PA [2]) of the same substance?
**A.** The Km was 2.1 mM.

**Q.** And the “kcat, u-PA” value (u-PA [2])?
**A.** The value was 2.3 s⁻¹.

**Q.** For “GSGK↓S (GSGKS; listed as Homo sapiens) [XVIII]”, which Km (t-PA [1]) is on record?
**A.** Its Km is 44 mM.

**Q.** And the “kcat, t-PA” value (t-PA [1])?
**A.** The value was 0.07 s⁻¹.

**Q.** And the Km (u-PA [2])?
**A.** The Km was 4.25 mM.

**Q.** What about the “kcat, u-PA” value (u-PA [2]) of the same substance?
**A.** The value was 0.82 s⁻¹.

**Q.** And the “u-PA:t-PA Selectivity” value (u-PA [3])?
**A.** Its value is “approximately 120”.

**Q.** “PGRVVG [Control phage PL, reference compound]” was tested. Which “digestion of phage stock by u-PA” value (u-PA [4]) did it give?
**A.** Its value is “not digested by either enzyme”.

**Q.** And the “digestion of phage stock by t-PA” value (t-PA [5])?
**A.** The value was “not digested by either enzyme”.

**Q.** Which “digestion of phage stock by u-PA” value (u-PA [4]) does the source give for RIARRA [Substrate phage 51] here?
**A.** Its value is “substrate of both t-PA and u-PA”.

**Q.** And the “digestion of phage stock by t-PA” value (t-PA [5])?
**A.** Its value is “substrate of both t-PA and u-PA”.

**Q.** Which results are given for “LGGSGR↓SATRDLE (LGGSGRSATRDLE; listed as Homo sapiens) [XIII]”?
**A.** Km (t-PA [1]): 1.5 mM; kcat, t-PA (t-PA [1]): 0.068 s⁻¹; Km (u-PA [2]): 0.733 mM; kcat, u-PA (u-PA [2]): 0.54 s⁻¹

**Q.** FRGRAA [Phage 7] was tested. Which “selectivity of substrate phage for t-PA or u-PA” value (t-PA [5]) did it give?
**A.** Its value is “t-PA selective substrate”.

**Q.** How did the Km (t-PA [1]) turn out when “SGK↓S (SGKS; listed as Homo sapiens) [XVII]” was run?
**A.** The Km was 28 mM.

**Q.** What about the “kcat, t-PA” value (t-PA [1]) of the same substance?
**A.** The value was 0.19 s⁻¹.

**Q.** What about the “t-PA:u-PA Selectivity” value (t-PA [1]) of the same substance?
**A.** Its value is 0.04.

**Q.** What about the Km (u-PA [2]) of the same substance?
**A.** Its Km is 7.9 mM.

**Q.** What about the “kcat, u-PA” value (u-PA [2]) of the same substance?
**A.** Its value is 1.22 s⁻¹.

**Q.** For RSANAI [Phage 33], which “selectivity of substrate phage for t-PA or u-PA” value (t-PA [5]) is on record?
**A.** The value was “u-PA selective substrate”.

Reference: US20030186329A1, “Use of substrate subtraction libraries to distinguish enzyme specificities” (The Scripps Research Institute, priority 1998, published 2003)
